Assay [1] has as its target Gln^3-Aβ(3-40), Gln^3-amyloid β-peptide(3-40) (Artificial Sequence).
Assay [2] has as its target Glucagon(3-29) (Homo sapiens (Human)) (UniProt P01275).
Assay [3] concerns the target Gln^3-Aβ(3-21)a, Gln^3-amyloid β-peptide(3-21)a (Artificial Sequence).
The target in assay [4] is Gln^3-Aβ(3-11)a, Gln^3-amyloid β-peptide(3-11)a (Artificial Sequence).

As for “recombinant human QC (glutaminyl cyclase) (from UniProt Q16769) (enzyme)”, the kcat/KM in assay [1] was 449000 M⁻¹ s⁻¹; in assay [2] it was 526000 M⁻¹ s⁻¹; in assay [3], 383000 M⁻¹ s⁻¹; in assay [4], 267000 M⁻¹ s⁻¹.

The record behind these values is patent publication US20100159032A1.
